For data set [1], the target named is T1, DND1 1-230 (RRM1-RRM2) (human, UniProt Q8IYX4 1-230).
T1 sequence: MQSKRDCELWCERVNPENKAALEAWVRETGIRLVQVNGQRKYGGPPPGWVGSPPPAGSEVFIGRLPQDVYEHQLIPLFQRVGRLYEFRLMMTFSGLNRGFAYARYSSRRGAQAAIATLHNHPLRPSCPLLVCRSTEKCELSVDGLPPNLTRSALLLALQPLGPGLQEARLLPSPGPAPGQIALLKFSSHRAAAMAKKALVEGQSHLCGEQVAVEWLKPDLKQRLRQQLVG
In words: MST; MST: 20 mM HEPES pH 7.4, 150 mM NaCl, 1 mM DTT, 0.05% Tween20 and 10 ug/mL yeast tRNA after 1:1 mixing, 5 nM Cy5-RNA, partner 2 uM final, 30 min at room temperature, measured at 25 C. The note with it: protein: recombinant; tags: His6-SUMO removed by Ulp1; N-terminal Ser (residue 0) from BamHI site; label: 5'-Cy5.

Data set [2] has as its target DND1 1-230 (RRM1-RRM2);NANOS3 ZF+C (human;human, UniProt Q8IYX4;P60323 1-230;55-173, |). In words: MST; DND1 titrated, 2 uM NANOS3 ZF+C; MST: 20 mM HEPES pH 7.4, 150 mM NaCl, 1 mM DTT, 0.05% Tween20 and 10 ug/mL yeast tRNA after 1:1 mixing, 5 nM Cy5-RNA, partner 2 uM final, 30 min at room temperature, measured at 25 C. The note with it: protein: recombinant;recombinant; tags: His6-SUMO removed by Ulp1; N-terminal Ser (residue 0) from BamHI site;His6-SUMO removed by Ulp1; N-terminal Ser (residue 54) from BamHI site; copies: 1;1; label: 5'-Cy5.

The target in data set [3] is DND1 K196A;NANOS3 ZF+C (human;human, UniProt Q8IYX4;P60323 1-230;55-173, K196A|). The data set is described as above. Particulars: protein: recombinant;recombinant; tags: His6-SUMO removed by Ulp1;His6-SUMO removed by Ulp1; N-terminal Ser (residue 54) from BamHI site; copies: 1;1; label: 5'-Cy5.
Sequence of DND1 K196A;NANOS3 ZF+C (Q8IYX4 1-230 K196A, chain 1 of 2): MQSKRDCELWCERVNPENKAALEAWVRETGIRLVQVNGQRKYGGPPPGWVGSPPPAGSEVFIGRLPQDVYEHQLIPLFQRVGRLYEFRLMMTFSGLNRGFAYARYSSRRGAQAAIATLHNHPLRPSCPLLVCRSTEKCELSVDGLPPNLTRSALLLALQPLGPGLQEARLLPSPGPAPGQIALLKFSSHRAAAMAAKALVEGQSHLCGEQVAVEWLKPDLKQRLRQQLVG
Sequence of DND1 K196A;NANOS3 ZF+C (P60323 55-173, chain 2 of 2): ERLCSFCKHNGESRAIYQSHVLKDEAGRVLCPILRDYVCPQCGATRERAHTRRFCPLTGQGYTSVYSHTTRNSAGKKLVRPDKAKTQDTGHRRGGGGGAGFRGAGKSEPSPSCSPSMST
The target in data set [4] is DND1 13-230 (del1-12);NANOS3 ZF (ZF1-ZF2) (human;human, UniProt Q8IYX4;P60323 13-230;55-113, del1-12|). In words: MST; DND1 titrated, 2 uM NANOS3 ZF; MST: 20 mM HEPES pH 7.4, 150 mM NaCl, 1 mM DTT, 0.05% Tween20 and 10 ug/mL yeast tRNA after 1:1 mixing, 5 nM Cy5-RNA, partner 2 uM final, 30 min at room temperature, measured at 25 C. The note with it: protein: recombinant;recombinant; tags: His6-SUMO removed by Ulp1;His6-SUMO removed by Ulp1; N-terminal Ser (residue 54) from BamHI site; copies: 1;1; label: 5'-Cy5.
Sequence of DND1 13-230 (del1-12);NANOS3 ZF (ZF1-ZF2) (P60323 55-113, stated change not applied, chain 2 of 2, one chain of several): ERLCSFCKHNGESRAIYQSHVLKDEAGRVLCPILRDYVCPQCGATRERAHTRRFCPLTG

Data set [5] deals with T2, DND1 13-230 (del1-12) (human, UniProt Q8IYX4 13-230, del1-12).
T2 sequence: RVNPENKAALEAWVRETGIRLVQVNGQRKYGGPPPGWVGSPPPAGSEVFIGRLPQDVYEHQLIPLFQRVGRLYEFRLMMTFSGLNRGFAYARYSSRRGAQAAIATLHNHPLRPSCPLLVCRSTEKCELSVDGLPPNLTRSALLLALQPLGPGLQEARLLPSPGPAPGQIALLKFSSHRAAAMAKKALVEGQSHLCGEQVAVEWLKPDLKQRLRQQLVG
The data set can be described thus: MST; MST: 20 mM HEPES pH 7.4, 150 mM NaCl, 1 mM DTT, 0.05% Tween20 and 10 ug/mL yeast tRNA after 1:1 mixing, 5 nM Cy5-RNA, partner 2 uM final, 30 min at room temperature, measured at 25 C. Particulars: protein: recombinant; tags: His6-SUMO removed by Ulp1; label: 5'-Cy5.

For data set [6], the target named is DND1 F93A;NANOS3 ZF+C (human;human, UniProt Q8IYX4;P60323 1-230;55-173, F93A|). In words: MST; DND1 titrated, 2 uM NANOS3 ZF+C; MST: 20 mM HEPES pH 7.4, 150 mM NaCl, 1 mM DTT, 0.05% Tween20 and 10 ug/mL yeast tRNA after 1:1 mixing, 5 nM Cy5-RNA, partner 2 uM final, 30 min at room temperature, measured at 25 C. The note with it: protein: recombinant;recombinant; tags: His6-SUMO removed by Ulp1;His6-SUMO removed by Ulp1; N-terminal Ser (residue 54) from BamHI site; copies: 1;1; label: 5'-Cy5.
Sequence of DND1 F93A;NANOS3 ZF+C (Q8IYX4 1-230 F93A, chain 1 of 2): as the sequence (Q8IYX4 1-230 K196A, chain 1 of 2) above, with F93A, A196K counted along it
Sequence of DND1 F93A;NANOS3 ZF+C (P60323 55-173, chain 2 of 2): as the sequence (P60323 55-173, chain 2 of 2) above

Data set [7] has as its target DND1 H189A;NANOS3 ZF+C (human;human, UniProt Q8IYX4;P60323 1-230;55-173, H189A|). Described as above. Particulars: protein: recombinant;recombinant; tags: His6-SUMO removed by Ulp1;His6-SUMO removed by Ulp1; N-terminal Ser (residue 54) from BamHI site; copies: 1;1; label: 5'-Cy5.

Sequence of DND1 1-230 (RRM1-RRM2);NANOS3 ZF+C (P60323 55-173, chain 2 of 2, one chain of several): as the sequence (P60323 55-173, chain 2 of 2) above
Sequence of DND1 H189A;NANOS3 ZF+C (P60323 55-173, stated change not applied, one chain of several): as the sequence (P60323 55-173, chain 2 of 2) above

B1: N3mut (ssRNA)
RNA: AUAUGACUCU
Regarding B1, the Kd in data set [1] was 6.4 ± 3.8 µM; in data set [2], 2.7 ± 1.1 µM.

B2: G3C (ssRNA)
RNA: AUAUCAAUUU
With B2, in data set [3], the Kd was determined as 0.31 ± 0.09 µM.

B3: D1-N3mut (ssRNA)
RNA: AUGCCACUCU
Regarding B3, the Kd in data set [1] was 11 ± 2.1 µM; in data set [2], 12 ± 3 µM.

B4: G3A (ssRNA)
RNA: AUAUAAAUUU
As for B4, the Kd in data set [3] stood at 0.17 ± 0.04 µM.

B5: spacer (ssRNA)
RNA: AUAUGACCCAUUU
For B5, in data set [1], the Kd worked out at 8.2 ± 3.6 µM.

B6: D1mut (ssRNA)
RNA: AUGCCAAUUU
As to B6, the values for the Kd in data set [1] and in data set [2] were 15 ± 4.7 µM and 15 ± 7.7 µM, respectively.

B7: CDK1 N3-DRE (Cy5) (ssRNA)
RNA: AUAUGAAUUU
With B7, the dissociation constant (Kd) in data set [4] came to 4 ± 2.4 µM; in data set [5], 3.7 ± 1.4 µM; in data set [6], 1.1 ± 0.4 µM; in data set [7], 0.16 ± 0.05 µM.

B8: G3U (ssRNA)
RNA: AUAUUAAUUU
For the molecule B8, the Kd in data set [3] is 0.13 ± 0.02 µM.
